The target of the assay is T1, recombinant GST-EGFL7 protein (UniProt Q9UHF1 24-273).
T1 construct: Expressed in Sf21 insect cells by baculovirus and purified on glutathione-agarose; The sense primer encodes MRGSQEV, which fits human EGFL7; also called purified EGFL7 protein; recombinant EGFL7; not shown: glutathione-S-transferase (GST) tag from the pDEST20 plasmid (Invitrogen); TEV site/linker region carried over from pENTR/TEV/D-TOPO
T1 sequence (looked up): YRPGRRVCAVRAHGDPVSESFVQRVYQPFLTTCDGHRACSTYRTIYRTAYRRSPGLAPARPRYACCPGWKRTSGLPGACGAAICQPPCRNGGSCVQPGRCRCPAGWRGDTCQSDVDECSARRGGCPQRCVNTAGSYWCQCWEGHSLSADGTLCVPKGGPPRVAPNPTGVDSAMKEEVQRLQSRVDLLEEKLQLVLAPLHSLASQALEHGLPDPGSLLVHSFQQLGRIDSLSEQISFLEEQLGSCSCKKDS
In words: SPR imaging (GWC); peptide immobilised on gold spots, purified EGFL7 protein in solution; fit with 'association then dissociation' in GraphPad Prism. As for the experimental part:
Peptides were immobilized onto gold spots using standard protocols from the GWC manual. Peptides were then exposed to 500 μL of purified EGFL7 protein. The % change in reflectivity (% R) for each of the spots containing the peptides was collected using V++ Precision Digital Imaging Systems, version 5.0 software and the dissociation constants (KD) were calculated using the ‘association then dissociation’ equation in GraphPad Prism, version 5.0.

Consider one molecule from US20150071855A1 (LONDON HEALTH SCIENCES CENTRE RESEARCHING, published 2015).

A word on the Kd: it is the constant that tells how readily two partners part at equilibrium.

B1: GSLLVHSFQQLG (peptide)
peptide: GSLLVHSFQQLG
notes: Immobilised on gold spots for the SPR imaging study; also called LCE71; LCE77
For B1, the dissociation constant Kd amounted to 14.7 nM.
